These results are taken from US20040146964.

The subject of the data set is T1, C. elegans HIF-α homologue, wild type.
T1 sequence: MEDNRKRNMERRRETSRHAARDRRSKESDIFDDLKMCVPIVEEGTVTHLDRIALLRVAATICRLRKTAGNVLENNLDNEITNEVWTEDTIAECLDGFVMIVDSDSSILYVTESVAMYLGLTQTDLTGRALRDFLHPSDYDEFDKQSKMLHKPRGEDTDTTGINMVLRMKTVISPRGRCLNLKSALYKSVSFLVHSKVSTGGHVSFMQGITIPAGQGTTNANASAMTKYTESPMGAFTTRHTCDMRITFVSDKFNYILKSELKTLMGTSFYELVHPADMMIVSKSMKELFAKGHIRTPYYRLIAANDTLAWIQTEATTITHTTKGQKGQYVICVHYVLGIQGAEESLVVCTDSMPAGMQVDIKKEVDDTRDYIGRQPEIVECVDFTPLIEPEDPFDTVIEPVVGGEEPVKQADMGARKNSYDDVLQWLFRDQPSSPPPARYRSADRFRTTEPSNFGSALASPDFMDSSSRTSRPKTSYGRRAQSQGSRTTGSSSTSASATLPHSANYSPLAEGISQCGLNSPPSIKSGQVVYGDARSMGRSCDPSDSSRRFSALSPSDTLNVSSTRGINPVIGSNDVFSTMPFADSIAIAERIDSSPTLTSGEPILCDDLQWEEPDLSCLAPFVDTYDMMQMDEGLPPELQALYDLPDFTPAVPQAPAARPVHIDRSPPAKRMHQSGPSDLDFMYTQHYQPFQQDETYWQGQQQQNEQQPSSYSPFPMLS

Consider “gene product of the predicted ORF T20B3.7”, for which the “modification of HIF-1 read by HA.VHL-1 capture” value was “had no activity in these assays”.
